This is an account of results in paper PMC9695418, “The Synthesis and Preclinical Investigation of Lactosamine-Based Radiopharmaceuticals for the Detection of Galectin-3-Expressing Melanoma Cells” (Pharmaceutics, 2022).

Series [1] deals with human galectin-3 CRD. The following applies: fold greater affinity than lactose; cited from earlier work.
Series [2] can be described thus: in vivo. Further details: species or system C57BL/6 mice. The settings on record: C57BL/6, mouse, iv, total radioactivity. The text has this:
As part of the ex vivo biodistribution studies—after PET imaging—the sacrifice of the experimental animals occurred followed by the gamma counter-based measurement of the radioactivity of the organs and tissues (Figure 7).
Significance level between the [^68Ga]Ga-DOTAGA-LacN(NAP) and the two other investigated radiotracers: p ≤ 0.01 (*).

Series [3] can be described thus: in vivo. The settings on record: C57BL/6, mouse, iv, total radioactivity.
Experimental: (§1) After in vivo PET imaging (100 min post injection), control and B16-F10 tumor-bearing mice were euthanized with 5% isoflurane (Forane, AbbVie, Budapest, Hungary; OGYI-T-1414/01). For the assessment of the radiotracer uptake, the radioactivity concentration (%ID/g tissue) of the selected organs was measured with a calibrated gamma counter (Perkin-Elmer Packard Cobra, Waltham, MA, USA) (Supplementary Material Table S1).
Series [4] deals with subcutaneous B16-F10 tumors. The following applies: mouse, in vivo.
Experimental: as §1
Series [5] is described as follows: in vivo. The following applies: C57BL/6, mouse, iv, total radioactivity, SUVmean of the liver.
Experimental: Both normal control and B16-F10 tumorous mice were iv. administered with 6.8 ± 0.9 MBq [^68Ga]Ga-DOTAGA-LacN(NAP), [^68Ga]Ga-DOTAGA-LacN(NAP)-cRGDfK, or [^68Ga]Ga-DOTAGA-cRGDfK in 120 μL saline through the lateral tail vein.
[6] abbreviates: ex vivo biodistribution: bone (femur).
[7] abbreviates: ex vivo biodistribution: kidney.
The mark [8] stands for this setting: ex vivo biodistribution: large intestine.
The mark [9] stands for this setting: ex vivo biodistribution: muscle.
The mark [10] stands for this setting: ex vivo biodistribution: pancreas.
Setting [11] is: ex vivo biodistribution: salivary glands.
Setting [12] is: ex vivo biodistribution: small intestine.
The mark [13] stands for this setting: ex vivo biodistribution: spleen.
[14] abbreviates: uptake in subcutaneous B16-F10 tumors.

As for `CC(=O)N[C@H]1C(O)O[C@H](CO)[C@@H](O[C@@H]2O[C@H](CO)[C@H](O)[C@H](O)[C@H]2O)[C@@H]1O` (stereo partly drawn) [N-acetyl-lactosamine], in series [1], the “affinity for the CRD of galectin-3 compared to the lactose molecule” value was 5 fold.

For the compound `N=C(N)NCCC[C@@H]1NC(=O)[C@H](CCCCNC(=O)CCOCCOCCOCCOCCNC(=O)CCC(=O)N2Cc3ccccc3-c3c(nnn3CCCO[C@@H]3O[C@H](CO)[C@@H](O[C@@H]4O[C@H](CO)[C@H](O)[C@H](OCc5ccc6ccccc6c5)[C@H]4O)[C@H](O)[C@H]3NC(=S)Nc3ccc(CNC(=O)CCC(C(=O)O)N4CCN(CC(=O)O)CCN(CC(=O)O)CCN(CC(=O)O)CC4)cc3)-c3ccccc32)NC(=O)[C@@H](Cc2ccccc2)NC(=O)[C@H](CC(=O)O)NC(=O)CNC1=O` (stereo partly drawn) [[^68Ga]Ga-DOTAGA-LacN(NAP)-cRGDfK, metal not drawn], the tissue uptake at 100 min in series [2] (accumulation in the gall bladder) is 3.07 ± 2.1 %ID/g; in series [2] (accumulation in the intestines), about 1.7 %ID/g; in series [2] (accumulation in the stomach), 1.7 ± 0.71 %ID/g; in series [3] (ex vivo biodistribution: blood), 0.58 ± 0.14 %ID/g; in series [3] (setting [6]), 0.54 ± 0.21 %ID/g; in series [3] (ex vivo biodistribution: brain), 0.06 ± 0.01 %ID/g. Also, the tissue uptake at 100 min was 0.17 ± 0.13 %ID/g in series [3] (ex vivo biodistribution: fat); 0.61 ± 0.17 %ID/g in series [3] (ex vivo biodistribution: heart); 6.14 ± 1.14 %ID/g in series [3] (setting [7]); 1.74 ± 0.7 %ID/g in series [3] (setting [8]); 2.19 ± 0.73 %ID/g in series [3] (ex vivo biodistribution: liver); 1.54 ± 0.62 %ID/g in series [3] (ex vivo biodistribution: lungs). In addition, the tissue uptake at 100 min in series [3] (setting [9]) was 0.27 ± 0.07 %ID/g; in series [3] (setting [10]), 0.43 ± 0.12 %ID/g; in series [3] (setting [11]) it was 1.34 ± 0.5 %ID/g; in series [3] (setting [12]) it was 1.77 ± 0.96 %ID/g; in series [3] (setting [13]), 1.6 ± 1.17 %ID/g; in series [3] (setting [14]), 0.8 ± 0.23 %ID/g. For the same compound, the “B16-F10/Liver ratio (T/L)” value in series [4] is given as 0.45 ± 0.11. Also, in series [4], the “B16-F10/Muscle ratio (T/M)” value is reported as 3.43 ± 1.09. The SUV at 80 min in series [5] came out at 1.25 ± 0.18 SUV.

In the case of `N=C(N)NCCC[C@@H]1NC(=O)[C@H](CCCCNC(=S)Nc2ccc(CNC(=O)CCC(C(=O)O)N3CCN(CC(=O)O)CCN(CC(=O)O)CCN(CC(=O)O)CC3)cc2)NC(=O)[C@@H](Cc2ccccc2)NC(=O)[C@H](CC(=O)O)NC(=O)CNC1=O` (stereo partly drawn) [[^68Ga]Ga-DOTAGA-cRGDfK, metal not drawn], the tissue uptake at 100 min was found to be 0.37 ± 0.05 %ID/g in series [3] (ex vivo biodistribution: blood); 0.26 ± 0.04 %ID/g in series [3] (setting [6]); 0.03 ± 0.01 %ID/g in series [3] (ex vivo biodistribution: brain); 0.19 ± 0.08 %ID/g in series [3] (ex vivo biodistribution: fat); 0.84 ± 0.29 %ID/g in series [3] (ex vivo biodistribution: gall bladder); 0.26 ± 0.06 %ID/g in series [3] (ex vivo biodistribution: heart). Moreover, the tissue uptake at 100 min in series [3] (setting [7]) is 2.43 ± 0.26 %ID/g; in series [3] (setting [8]), 0.55 ± 0.16 %ID/g; in series [3] (ex vivo biodistribution: liver), 1 ± 0.25 %ID/g; in series [3] (ex vivo biodistribution: lungs) it was 0.66 ± 0.18 %ID/g; in series [3] (setting [9]), 0.1 ± 0.01 %ID/g; in series [3] (setting [10]), 0.18 ± 0.06 %ID/g. The tissue uptake at 100 min came out at 0.54 ± 0.18 %ID/g in series [3] (setting [11]); 0.78 ± 0.2 %ID/g in series [3] (setting [12]); 0.8 ± 0.09 %ID/g in series [3] (setting [13]); 0.69 ± 0.21 %ID/g in series [3] (ex vivo biodistribution: stomach); 0.35 ± 0.12 %ID/g in series [3] (setting [14]). In addition, the “B16-F10/Liver ratio (T/L)” value in series [4] stood at 0.35 ± 0.14. In addition, in series [4], the “B16-F10/Muscle ratio (T/M)” value worked out at 4.54 ± 1.24. The SUV at 80 min in series [5] came out at 0.59 ± 0.08 SUV.

As a reminder, the tissue uptake is the percentage of the injected dose found per gram of tissue.
